# B1: β-galactosidase (GLB1), mouse brain (enzyme, mouse (endogenous in brain tissue), UniProt P23780 30-647, looked up)
# chain: QRTFKLDYSRDRFLKDGQPFRYISGSIHYFRIPRFYWEDRLLKMKMAGLNAIQMYVPWNFHEPQPGQYEFSGDRDVEHFIQLAHELGLLVILRPGPYICAEWDMGGLPAWLLEKQSIVLRSSDPDYLVAVDKWLAVLLPKMKPLLYQNGGPIITVQVENEYGSYFACDYDYLRFLVHRFRYHLGNDVILFTTDGASEKMLKCGTLQDLYATVDFGTGNNITQAFLVQRKFEPKGPLINSEFYTGWLDHWGKPHSTVKTKTLATSLYNLLARGANVNLYMFIGGTNFAYWNGANTPYEPQPTSYDYDAPLSEAGDLTKKYFALREVIQMFKEVPEGPIPPSTPKFAYGKVALRKFKTVAEALGILCPNGPVKSLYPLTFTQVKQYFGYVLYRTTLPQDCSNPKPIFSSPFNGVRDRAYVSVDGVPQGILDRNLMTALNIRGKAGATLDILVENMGRVNYGRFINDFKGLISNMTINSTVLTNWTVFPLNTEAMVRNHLWGREASDEGHLDGRSTSNSSDLILPTFYVGNFSIPSGIPDLPQDTFIQFPGWSKGQVWINGFNLGRYWPTMGPQKTLFVPRNILTTSAPNNITVLELEFAPCSEGTPELCTVEFVDTPVIS
# notes: β-galactosidase (GLB1), mouse, endogenous in brain extracts; detected by its enzymatic activity in gel-filtration fractions; Eluted both in the ~1,200 kDa LMC peak and as a 240 kDa tetramer; also called lysosomal β-galactosidase; source: endogenous, total protein extracts from mouse brain tissue
# Molecular target: the molecule itself
# Test: SEC; gel filtration of total protein extracts from brain tissue of WT mice; GLB1 and NEU1 enzymatic activities measured in the eluted fractions
protein,measurement,value
B1,stoichiometry N,4

# Reference: paper PMC12352893, “Neuraminidase 1 secondary deficiency contributes to CNS pathology in neurological mucopolysaccharidoses via brain protein hypersialylation” (The Journal of Clinical Investigation, 2025)
